# In patent publication US7074905:
# Legend:
# [1] = target: soluble sc-DR2/MBP-Cκ fusion molecule (human kappa constant domain) from pDRHK-transfected CHO cells (human); assay: sandwich ELISA, anti-human kappa capture, L243-HRP probe; cell line CHOE 12
# [2] = target: soluble sc-DR2/MBP-Cκ fusion molecule (human kappa constant domain) from pDRHK-transfected CHO cells (human); assay: sandwich ELISA, L227 capture, L243-HRP probe; cell line CHOA5
# [3] = target: soluble sc-DR2/MBP-Cκ fusion molecule (human kappa constant domain) from pDRHK-transfected CHO cells (human); assay: sandwich ELISA, anti-human kappa capture, L243-HRP probe; cell line CHOA5
# [4] = target: soluble sc-DR2/MBP-Cκ fusion molecule (human kappa constant domain) from pDRHK-transfected CHO cells (human); assay: sandwich ELISA, L227 capture, L243-HRP probe; cell line CHOE 12
# [5] = target: soluble sc-IA^d/OVA produced in SF9 insect cells (baculovirus) (murine); assay: cell-based or functional assay
# [6] = target: sc-IA^d/OVA-Cκ fusion molecule (sc-IA^d/OVA fused to the mouse kappa constant domain), from pIADK-transfected NSO cells (murine; mouse); assay: cell-based or functional assay
# [7] = target: sc-IA^d/gD (sc-IA^d fusion protein carrying the gD 246-261 peptide), from insect cells (HSV-1; murine); assay: cell-based or functional assay
# [8] = target: soluble sc-IA^d/OVA secreted by SCE1-transfected NSO cells (murine); assay: IA^d-specific sandwich ELISA, M5/114 capture, biotin-AMS-32.1 probe; undiluted culture supernatant of E10 (SCE1 transfectant)
# [9] = target: soluble sc-IA^d/OVA produced in SF9 insect cells (baculovirus) (murine); assay: IA^d-specific sandwich ELISA, M5/114 capture, biotin-AMS-32.1 probe; sc-IA^d/OVA from insect cell culture (positive control)
# [10] = target: soluble sc-IA^d/OVA secreted by SCE1-transfected NSO cells (murine); assay: IA^d-specific sandwich ELISA, M5/114 capture, biotin-AMS-32.1 probe; undiluted culture supernatant of E11 (SCE1 transfectant)
# soluble sc-DR2/MBP-Cκ fusion molecule (human kappa constant domain) from pDRHK-transfected CHO cells (human), sequence (P02686 other isoform, or with tags, fused parts or gaps): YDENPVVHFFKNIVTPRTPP
substance,measurement,setting,value
L243 mAb (ATCC HB-55) (antibody),ELISA Readings (Absorbance),[1],1.06
same,ELISA Readings (Absorbance),[2],0.434
same,ELISA Readings (Absorbance),[3],1.45
same,ELISA Readings (Absorbance),[4],0.245
T-cell receptor of the murine T-cell hybridoma DO11.10 (TCR),DO11.10 IL-2 Released (pg/well),[5],528 pg/well
same,DO11.10 IL-2 Released (pg/well),[6],500 pg/well
same,DO11.10 IL-2 Released (pg/well),[7],0 pg/well
anti-IA^d mAb AMS-32.1 (PharMingen) (antibody),Absorbance,[8],0.781
same,Absorbance,[9],2.44
same,Absorbance,[10],0.96
